Measured values taken from patent US20080025968A1 (YEDA RESEARCH AND DEVELOPMENT, published 2008).

What was measured:
IKK2, endogenous = molecular target: T1, IKK2, endogenous (human, UniProt O14920 1-756); test: western blot of the p55 TNF receptor complex from Ramos cells after TNF (FIG. 5c)
T1 construct: mature; also called IKKβ
T1 sequence (looked up): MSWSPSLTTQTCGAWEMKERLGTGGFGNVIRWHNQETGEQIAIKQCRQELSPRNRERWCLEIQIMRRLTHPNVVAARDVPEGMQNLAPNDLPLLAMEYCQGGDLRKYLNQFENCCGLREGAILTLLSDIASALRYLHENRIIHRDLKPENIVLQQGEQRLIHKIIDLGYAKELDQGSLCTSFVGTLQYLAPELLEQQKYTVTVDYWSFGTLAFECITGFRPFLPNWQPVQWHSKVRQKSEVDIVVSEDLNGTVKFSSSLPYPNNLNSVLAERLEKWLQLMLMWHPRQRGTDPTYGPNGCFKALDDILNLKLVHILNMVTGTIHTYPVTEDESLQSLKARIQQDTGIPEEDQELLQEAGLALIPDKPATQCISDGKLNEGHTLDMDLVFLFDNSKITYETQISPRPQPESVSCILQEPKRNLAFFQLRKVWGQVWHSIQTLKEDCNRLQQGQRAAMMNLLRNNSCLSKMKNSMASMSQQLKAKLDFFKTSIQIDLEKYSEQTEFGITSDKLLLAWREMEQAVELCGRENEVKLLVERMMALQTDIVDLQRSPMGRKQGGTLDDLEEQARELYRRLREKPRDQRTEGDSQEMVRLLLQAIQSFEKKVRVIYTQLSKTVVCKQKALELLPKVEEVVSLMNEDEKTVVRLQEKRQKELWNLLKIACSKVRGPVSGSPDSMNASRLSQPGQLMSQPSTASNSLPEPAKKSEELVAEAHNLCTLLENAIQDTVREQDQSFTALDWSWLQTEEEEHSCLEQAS

[1] = molecular target: T2, myc-NIK (NIK N-terminally fused to the myc tag) (human, UniProt Q99558 1-947); test: western blot of the p55 TNF receptor complex from NIK-deficient Ramos cells replenished with NIK (FIG. 6d)
T2 construct: Expressed in HEK293T cells for co-immunoprecipitation, the reporter test and the kinase test; also called myc-tagged NIK; wild type NIK
Protocol: Transfections, immunoblotting and immunoprecipitations were performed as described in Example 2 and Example 3 of the Examples section. For immunoprecipitation of the CD70/CD27 ligand-receptor complexes from resting PBMC and Ramos cells, cell lysates were prepared as described for the kinase tests aforementioned and incubated for 4 hours at 4° C. with 25 μl of 50% M2-FLAG agarose beads per ml of lysate. The TNF-receptor complex was precipitated as described (Zhang et al., 2000). The signalosome from cell lysates was immunoprecipitated using a 1:1 mixture of two different antibodies against IKK1 (M-280 and H-744, Santa Cruz). Immunoprecipitation was allowed to continue for 2 hours at 4° C., using 10 μg of anti-IKKα antibodies adsorbed to 25 μl of 50% protein-A-Sepharose beads per ml of lysate.
In NIK− cells, recruitment to the p55 TNF receptor occurred just as effectively as in the wild type cells (FIG. 6c, right panel). In contrast, recruitment of the signalosome components to CD27 was completely abolished (FIGS. 6c, d, left panels). Introduction of the wild type NIK, but not of “kinase-dead” NIK, to the NIK− cells reintated the recruitment in response to CD70 (FIG. 6d, middle and right panels). […] This recruitment could be observed both in cells expressing the wild type enzyme and in those that expressed its “[…]” mutant (FIG. 6d). […]

T2 sequence (Q99558 other isoform, or with tags, fused parts or gaps): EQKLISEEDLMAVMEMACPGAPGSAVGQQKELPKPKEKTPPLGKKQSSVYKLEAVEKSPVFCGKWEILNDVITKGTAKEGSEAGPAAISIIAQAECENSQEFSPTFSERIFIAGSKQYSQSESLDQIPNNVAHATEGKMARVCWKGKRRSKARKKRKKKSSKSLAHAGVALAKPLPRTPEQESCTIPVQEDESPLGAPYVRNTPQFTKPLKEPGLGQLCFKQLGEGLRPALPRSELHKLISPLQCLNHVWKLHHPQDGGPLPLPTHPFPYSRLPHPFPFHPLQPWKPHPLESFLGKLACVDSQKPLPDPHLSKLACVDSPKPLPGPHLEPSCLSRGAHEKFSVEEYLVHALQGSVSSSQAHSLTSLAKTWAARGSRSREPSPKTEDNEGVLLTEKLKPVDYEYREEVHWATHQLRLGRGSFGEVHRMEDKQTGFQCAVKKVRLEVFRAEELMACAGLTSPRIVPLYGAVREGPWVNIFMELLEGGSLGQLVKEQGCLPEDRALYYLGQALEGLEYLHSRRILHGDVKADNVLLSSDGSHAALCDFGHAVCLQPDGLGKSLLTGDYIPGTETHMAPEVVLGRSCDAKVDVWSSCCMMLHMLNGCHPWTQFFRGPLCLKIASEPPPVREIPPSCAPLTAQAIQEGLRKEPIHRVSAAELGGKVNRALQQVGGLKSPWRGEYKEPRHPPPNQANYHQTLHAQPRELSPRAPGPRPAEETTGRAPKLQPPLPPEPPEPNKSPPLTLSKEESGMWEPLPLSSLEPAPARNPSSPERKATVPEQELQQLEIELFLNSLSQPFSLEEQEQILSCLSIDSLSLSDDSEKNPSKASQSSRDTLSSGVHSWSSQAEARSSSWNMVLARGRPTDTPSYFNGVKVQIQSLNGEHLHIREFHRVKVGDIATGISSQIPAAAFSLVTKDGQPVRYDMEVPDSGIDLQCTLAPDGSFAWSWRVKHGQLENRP

B1: p55 TNF receptor, endogenous in Ramos cells (receptor, human, UniProt P19438 30-455, looked up)
chain: LVPHLGDREKRDSVCPQGKYIHPQNNSICCTKCHKGTYLYNDCPGPGQDTDCRECESGSFTASENHLRHCLSCSKCRKEMGQVEISSCTVDRDTVCGCRKNQYRHYWSENLFQCFNCSLCLNGTVHLSCQEKQNTVCTCHAGFFLRENECVSCSNCKKSLECTKLCLPQIENVKGTEDSGTTVLLPLVIFFGLCLLSLLFIGLMYRYQRWKSKLYSIVCGKSTPEKEGELEGTTTKPLAPNPSFSPTPGFTPTLGFSPVPSSTFTSSSTYTPGDCPNFAAPRREVAPPYQGADPILATALASDPIPNPLQKWEDSAHKPQSLDTDDPATLYAVVENVPPLRWKEFVRRLGLSDHEIDRLELQNGRCLREAQYSMLATWRRRTPRREATLELLGRVLRDMDLLGCLEDIEEALCGPAALPPAPSLLR
notes: whole, on cells; TNF-receptor complex precipitated as described by Zhang et al., 2000
IKK2, endogenous
  binding result: binds
[1]
  binding result: no binding
